In article PMC7440162 (Cell, 2020):
One block for each binder: values may come before it.

Columns and labels:
Test in all cases: SPR
[1] = target: T1, PTPRD ECD-Fc (human, UniProt P23468 21-1265)
T1 sequence: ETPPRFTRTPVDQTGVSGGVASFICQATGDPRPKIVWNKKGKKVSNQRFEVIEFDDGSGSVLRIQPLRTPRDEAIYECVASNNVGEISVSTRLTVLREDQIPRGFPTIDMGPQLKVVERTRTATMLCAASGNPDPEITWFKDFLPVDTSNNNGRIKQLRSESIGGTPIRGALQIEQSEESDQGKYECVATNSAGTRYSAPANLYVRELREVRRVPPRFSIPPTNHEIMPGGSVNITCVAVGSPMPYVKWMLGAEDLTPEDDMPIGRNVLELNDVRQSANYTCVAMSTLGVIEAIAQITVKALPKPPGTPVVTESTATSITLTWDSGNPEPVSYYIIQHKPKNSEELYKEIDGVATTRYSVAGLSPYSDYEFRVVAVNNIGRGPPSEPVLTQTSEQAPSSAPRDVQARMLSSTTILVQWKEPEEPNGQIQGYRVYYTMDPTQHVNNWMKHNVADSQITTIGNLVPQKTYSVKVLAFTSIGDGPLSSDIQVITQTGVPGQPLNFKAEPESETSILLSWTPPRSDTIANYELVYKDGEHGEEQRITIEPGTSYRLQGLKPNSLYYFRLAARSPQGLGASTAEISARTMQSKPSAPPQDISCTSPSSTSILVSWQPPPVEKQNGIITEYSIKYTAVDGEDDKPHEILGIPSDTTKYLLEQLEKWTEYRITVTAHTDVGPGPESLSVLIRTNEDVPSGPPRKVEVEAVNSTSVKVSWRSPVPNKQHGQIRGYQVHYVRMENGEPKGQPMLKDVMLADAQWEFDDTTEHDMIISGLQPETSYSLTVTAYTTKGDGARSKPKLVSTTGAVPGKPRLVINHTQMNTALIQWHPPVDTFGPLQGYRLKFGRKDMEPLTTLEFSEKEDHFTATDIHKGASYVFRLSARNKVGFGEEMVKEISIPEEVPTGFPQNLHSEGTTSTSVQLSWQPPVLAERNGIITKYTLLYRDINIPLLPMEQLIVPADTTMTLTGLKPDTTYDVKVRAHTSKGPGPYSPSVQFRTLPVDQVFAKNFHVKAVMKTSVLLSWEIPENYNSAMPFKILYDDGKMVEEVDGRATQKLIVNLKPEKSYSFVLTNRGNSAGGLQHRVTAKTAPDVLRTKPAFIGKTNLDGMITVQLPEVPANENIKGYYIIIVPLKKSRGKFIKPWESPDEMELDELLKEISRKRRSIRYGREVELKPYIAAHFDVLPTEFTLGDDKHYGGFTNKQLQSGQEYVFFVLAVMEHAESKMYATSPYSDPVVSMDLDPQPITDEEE

[2] = target: T2, PTPRS ECD-Fc (human, UniProt Q13332 30-1282)
T2 sequence: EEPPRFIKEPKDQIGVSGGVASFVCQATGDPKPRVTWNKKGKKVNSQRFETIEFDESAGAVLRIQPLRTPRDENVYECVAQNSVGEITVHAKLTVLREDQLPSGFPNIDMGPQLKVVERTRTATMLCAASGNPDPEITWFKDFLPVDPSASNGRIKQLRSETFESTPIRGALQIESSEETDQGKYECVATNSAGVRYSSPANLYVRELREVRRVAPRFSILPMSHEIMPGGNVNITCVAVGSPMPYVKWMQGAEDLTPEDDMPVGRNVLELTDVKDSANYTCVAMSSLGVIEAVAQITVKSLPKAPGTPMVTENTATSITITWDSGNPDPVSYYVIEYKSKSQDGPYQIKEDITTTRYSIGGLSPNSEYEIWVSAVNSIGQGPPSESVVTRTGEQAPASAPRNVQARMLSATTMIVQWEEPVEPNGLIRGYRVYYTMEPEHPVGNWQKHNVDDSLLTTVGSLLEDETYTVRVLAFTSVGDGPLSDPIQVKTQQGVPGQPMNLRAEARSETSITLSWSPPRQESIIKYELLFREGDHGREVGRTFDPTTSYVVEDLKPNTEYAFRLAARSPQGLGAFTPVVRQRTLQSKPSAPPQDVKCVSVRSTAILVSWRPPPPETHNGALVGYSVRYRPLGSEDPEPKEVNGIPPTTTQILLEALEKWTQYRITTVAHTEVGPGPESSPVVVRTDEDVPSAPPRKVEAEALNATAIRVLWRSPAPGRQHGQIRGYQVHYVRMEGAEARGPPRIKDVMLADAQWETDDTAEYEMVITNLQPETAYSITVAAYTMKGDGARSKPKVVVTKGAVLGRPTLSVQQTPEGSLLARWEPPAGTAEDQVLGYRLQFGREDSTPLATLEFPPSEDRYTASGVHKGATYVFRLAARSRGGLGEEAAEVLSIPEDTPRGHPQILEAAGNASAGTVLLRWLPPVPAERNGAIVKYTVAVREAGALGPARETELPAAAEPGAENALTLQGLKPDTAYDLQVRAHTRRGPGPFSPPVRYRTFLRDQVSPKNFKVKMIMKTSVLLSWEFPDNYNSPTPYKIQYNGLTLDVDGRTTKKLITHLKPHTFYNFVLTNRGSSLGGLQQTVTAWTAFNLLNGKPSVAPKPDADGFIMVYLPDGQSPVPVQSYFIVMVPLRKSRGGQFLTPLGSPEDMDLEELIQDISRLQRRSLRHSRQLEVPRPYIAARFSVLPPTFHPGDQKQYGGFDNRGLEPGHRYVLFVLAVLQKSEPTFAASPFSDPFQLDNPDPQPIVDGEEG

[3] = target: T3, PTPRF ECD-Fc (human, UniProt P10586 30-1263)
T3 sequence: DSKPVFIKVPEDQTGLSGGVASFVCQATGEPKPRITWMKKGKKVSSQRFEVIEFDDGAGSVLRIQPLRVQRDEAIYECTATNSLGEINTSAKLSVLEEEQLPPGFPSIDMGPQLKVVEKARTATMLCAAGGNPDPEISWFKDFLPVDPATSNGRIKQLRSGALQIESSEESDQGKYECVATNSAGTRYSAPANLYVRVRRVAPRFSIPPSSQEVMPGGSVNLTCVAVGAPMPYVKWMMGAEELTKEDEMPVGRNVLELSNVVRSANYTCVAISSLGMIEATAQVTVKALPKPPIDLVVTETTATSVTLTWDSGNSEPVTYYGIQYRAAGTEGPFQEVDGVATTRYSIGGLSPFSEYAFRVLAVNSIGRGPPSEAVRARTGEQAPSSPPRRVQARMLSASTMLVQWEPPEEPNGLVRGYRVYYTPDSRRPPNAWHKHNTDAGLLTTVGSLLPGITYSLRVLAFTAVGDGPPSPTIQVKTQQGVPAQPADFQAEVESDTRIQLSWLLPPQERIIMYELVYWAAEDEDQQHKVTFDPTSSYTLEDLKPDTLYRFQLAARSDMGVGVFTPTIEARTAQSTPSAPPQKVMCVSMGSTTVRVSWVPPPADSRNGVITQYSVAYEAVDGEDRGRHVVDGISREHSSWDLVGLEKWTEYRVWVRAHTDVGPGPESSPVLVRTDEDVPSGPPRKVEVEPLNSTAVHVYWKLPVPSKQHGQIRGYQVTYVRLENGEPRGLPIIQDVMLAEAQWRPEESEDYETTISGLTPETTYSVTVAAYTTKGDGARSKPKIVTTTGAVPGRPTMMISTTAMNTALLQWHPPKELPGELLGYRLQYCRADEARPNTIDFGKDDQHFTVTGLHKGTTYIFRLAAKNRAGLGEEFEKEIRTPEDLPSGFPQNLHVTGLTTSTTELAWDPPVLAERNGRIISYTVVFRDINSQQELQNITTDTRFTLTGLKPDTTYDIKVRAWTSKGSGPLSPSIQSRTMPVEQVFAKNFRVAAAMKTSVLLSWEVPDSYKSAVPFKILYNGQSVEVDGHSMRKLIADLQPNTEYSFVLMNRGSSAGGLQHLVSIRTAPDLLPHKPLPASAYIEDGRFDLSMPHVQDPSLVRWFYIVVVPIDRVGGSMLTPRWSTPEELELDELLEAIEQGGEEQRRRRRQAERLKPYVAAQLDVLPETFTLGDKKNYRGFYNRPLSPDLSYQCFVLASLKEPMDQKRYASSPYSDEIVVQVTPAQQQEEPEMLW

[4] = target: T4, ICAM5 ECD-Fc (human, UniProt Q9UMF0 32-835, biotin on the AviTag (as SPR ligand))
T4 sequence: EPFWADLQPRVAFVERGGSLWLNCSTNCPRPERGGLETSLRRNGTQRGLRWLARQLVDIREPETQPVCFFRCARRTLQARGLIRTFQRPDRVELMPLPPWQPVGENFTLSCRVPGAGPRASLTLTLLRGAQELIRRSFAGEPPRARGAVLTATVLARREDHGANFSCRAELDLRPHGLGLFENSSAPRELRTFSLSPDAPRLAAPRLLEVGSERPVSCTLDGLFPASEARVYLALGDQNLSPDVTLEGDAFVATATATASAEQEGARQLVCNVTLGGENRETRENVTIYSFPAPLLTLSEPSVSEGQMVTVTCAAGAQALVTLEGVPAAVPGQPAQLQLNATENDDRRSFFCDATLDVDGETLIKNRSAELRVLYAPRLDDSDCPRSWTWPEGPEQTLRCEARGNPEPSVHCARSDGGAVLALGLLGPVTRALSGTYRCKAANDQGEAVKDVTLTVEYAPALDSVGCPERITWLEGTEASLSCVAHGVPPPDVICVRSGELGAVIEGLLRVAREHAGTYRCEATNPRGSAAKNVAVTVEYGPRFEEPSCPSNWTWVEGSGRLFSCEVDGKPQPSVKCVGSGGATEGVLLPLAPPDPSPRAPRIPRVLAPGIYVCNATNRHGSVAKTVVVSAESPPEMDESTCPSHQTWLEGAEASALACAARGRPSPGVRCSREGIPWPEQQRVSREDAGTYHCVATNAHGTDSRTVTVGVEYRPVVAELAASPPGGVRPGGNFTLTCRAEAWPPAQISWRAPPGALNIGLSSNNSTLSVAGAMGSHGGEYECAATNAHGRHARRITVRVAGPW

[5] = target: LTF-Fc (human, UniProt P02788, biotin on the AviTag (as SPR ligand))
Sequence of LTF-Fc (P02788 20-710): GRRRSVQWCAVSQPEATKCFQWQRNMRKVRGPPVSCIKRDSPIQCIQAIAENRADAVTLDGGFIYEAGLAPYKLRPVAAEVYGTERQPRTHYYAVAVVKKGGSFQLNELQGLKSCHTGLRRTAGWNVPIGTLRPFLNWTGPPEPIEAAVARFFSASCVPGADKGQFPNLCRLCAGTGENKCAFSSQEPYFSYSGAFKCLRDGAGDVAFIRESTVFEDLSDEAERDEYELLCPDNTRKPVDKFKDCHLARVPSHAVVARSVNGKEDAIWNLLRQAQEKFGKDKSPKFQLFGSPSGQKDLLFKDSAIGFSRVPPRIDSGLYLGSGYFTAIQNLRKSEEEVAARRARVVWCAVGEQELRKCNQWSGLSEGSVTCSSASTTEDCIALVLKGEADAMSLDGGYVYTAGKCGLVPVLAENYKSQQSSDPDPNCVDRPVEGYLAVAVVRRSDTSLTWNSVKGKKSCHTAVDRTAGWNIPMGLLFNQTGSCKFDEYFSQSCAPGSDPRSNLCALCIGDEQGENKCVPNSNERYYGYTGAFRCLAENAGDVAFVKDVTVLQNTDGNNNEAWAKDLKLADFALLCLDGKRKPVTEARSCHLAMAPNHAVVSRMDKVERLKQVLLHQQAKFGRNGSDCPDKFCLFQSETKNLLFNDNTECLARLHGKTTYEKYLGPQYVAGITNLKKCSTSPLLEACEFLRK

binding result [1]: binds | binding result [2]: binds | binding result [3]: binds
B1: SALM3 ECD-Fc (Fc fusion)
chain: CPLPCVCQNLSESLSTLCAHRGLLFVPPNVDRRTVELRLADNFIQALGPPDFRNMTGLVDLTLSRNAITRIGARAFGDLESLRSLHLDGNRLVELGTGSLRGPVNLQHLILSGNQLGRIAPGAFDDFLESLEDLDLSYNNLRQVPWAGIGAMPALHTLNLDHNLIDALPPGAFAQLGQLSRLDLTSNRLATLAPDPLFSRGRDAEASPAPLVLSFSGNPLHCNCELLWLRRLARPDDLETCASPPGLAGRYFWAVPEGEFSCEPPLIARHTQRLWVLEGQRATLRCRALGDPAPTMHWVGPDDRLVGNSSRARAFPNGTLEIGVTGAGDAGGYTCIATNPAGEATARVELRVLALPHGGNSSAEGGRPGPSDIAASARTAAEGEGTLESEPAVQVTEVTATSGLVSWGPGRPADPVWMFQIQYNSSEDETLIYRIVPASSHHFLLKHLVPGADYDLCLLALSPAAGPSDLTATRLLGCAHFSTLPASPLCHALQAHVLGGTL
modifications: biotin on the AviTag (as SPR ligand)

binding result [1]: binds | binding result [2]: binds | binding result [3]: binds
B2: SALM5 ECD-Fc (Fc fusion)
chain: QICPKRCVCQILSPNLATLCAKKGLLFVPPNIDRRTVELRLADNFVTNIKRKDFANMTSLVDLTLSRNTISFITPHAFADLRNLRALHLNSNRLTKITNDMFSGLSNLHHLILNNNQLTLISSTAFDDVFALEELDLSYNNLETIPWDAVEKMVSLHTLSLDHNMIDNIPKGTFSHLHKMTRLDVTSNKLQKLPPDPLFQRAQVLATSGIISPSTFALSFGGNPLHCNCELLWLRRLSREDDLETCASPPLLTGRYFWSIPEEEFLCEPPLITRHTHEMRVLEGQRATLRCKARGDPEPAIHWISPEGKLISNATRSLVYDNGTLDILITTVKDTGAFTCIASNPAGEATQIVDLHIIKLPHLLNSTNHIHEPDPGSSDISTSTKSGSNTSSSNGDTKLSQDKIVVAEATSSTALLKFNFQRNIPGIRMFQIQYNGTYDDTLVYRMIPPTSKTFLVNNLAAGTMYDLCVLAIYDDGITSLTATRVVGCIQFTTEQDYVRCHFMQSQFLGGTM
modifications: biotin on the AviTag (as SPR ligand)

binding result [4]: binds | binding result [5]: binds
B3: human ISLR2 ECD-Fc (Fc fusion)
chain: SCPEPCACVDKYAHQFADCAYKELREVPEGLPANVTTLSLSANKITVLRRGAFADVTQVTSLWLAHNEVRTVEPGALAVLSQLKNLDLSHNFISSFPWSDLRNLSALQLLKMNHNRLGSLPRDALGALPDLRSLRINNNRLRTLAPGTFDALSALSHLQLYHNPFHCGCGLVWLQAWAASTRVSLPEPDSIACASPPALQGVPVYRLPALPCAPPSVHLSAEPPLEAPGTPLRAGLAFVLHCIADGHPTPRLQWQLQIPGGTVVLEPPVLSGEDDGVGAEEGEGEGDGDLLTQTQAQTPTPAPAWPAPPATPRFLALANGSLLVPLLSAKEAGVYTCRAHNELGANSTSIRVAVAATGPPKHAPGAGGEPDGQAPTSERKSTAKGRGNSVLPSKPEGKIKGQGLAKVSILGETETEPEEDTSEGEEAEDQILADPAEEQRCGNGDPSRYVSNHAFNQSAELKPHVFELGVIALDVAEREARVQLTPLAARWGPGPGGAGGAPRPGRRPLRLLYLCPAGGGAAVQWSRVEEGVNAYWFRGLRPGTNYSVCLALAGEACHVQVVFSTKKELPS
modifications: biotin on the AviTag (as SPR ligand)
